These results are taken from patent WO2022102744A1 (dated 2022).

The test deals with T1, SARS-CoV-2 spike protein (full S1 and S2 regions, furin recognition sequence removed, histidine tag) (SARS-CoV-2, UniProt P0DTC2 14-1273).
T1 construct: whole, on cells; also called Exo-S; spike protein positive exosome
Briefly: competition ELISA: ACE2 on plate, Exo-S with titrated antibody; competitor ACE2. Background: In an ELISA, binding on a coated surface is turned into a signal by an enzyme label.

B1: anti-spike protein monoclonal antibody clone A1-1C7 (antibody, V domains shown)
VH: EVQLQQSGTELVTPGASVKLSCTASGFNIKDTYVQWVKQRPEQGLEWIGRIDPASDNTFYASKFQGKASLSSDTSSNTAYMQLSSLTSGDTAVYYCSTYFSNFYYWGQGTPLTVSS
VL: DIQMTQSPASLSASVGDTVTITCGASENIYGALNWYQRKKGKSPQLLIYGATNLADGMSSRFSGRGSGRQYFLKISSLHPDDVATYYCQNVLSVPWTFGGGTKLEIK
notes: also called MAb2B (related to clone A1-1C7)
As usually defined, the IC50 is the midpoint of a concentration-inhibition curve. A lower IC50 goes with greater potency in that assay. As to B1, the IC50 was found to be 4.8 ng/mL.
